Test results reported in IntAct's records for PubMed 17024177.

Experiments:
pdk1_human PDK1 = pdk1_human PDK1 (UniProt Q15118)
sp1_human SP1 = sp1_human SP1 (UniProt P08047)
sp1_human SP1, sequence (P08047 whole entry): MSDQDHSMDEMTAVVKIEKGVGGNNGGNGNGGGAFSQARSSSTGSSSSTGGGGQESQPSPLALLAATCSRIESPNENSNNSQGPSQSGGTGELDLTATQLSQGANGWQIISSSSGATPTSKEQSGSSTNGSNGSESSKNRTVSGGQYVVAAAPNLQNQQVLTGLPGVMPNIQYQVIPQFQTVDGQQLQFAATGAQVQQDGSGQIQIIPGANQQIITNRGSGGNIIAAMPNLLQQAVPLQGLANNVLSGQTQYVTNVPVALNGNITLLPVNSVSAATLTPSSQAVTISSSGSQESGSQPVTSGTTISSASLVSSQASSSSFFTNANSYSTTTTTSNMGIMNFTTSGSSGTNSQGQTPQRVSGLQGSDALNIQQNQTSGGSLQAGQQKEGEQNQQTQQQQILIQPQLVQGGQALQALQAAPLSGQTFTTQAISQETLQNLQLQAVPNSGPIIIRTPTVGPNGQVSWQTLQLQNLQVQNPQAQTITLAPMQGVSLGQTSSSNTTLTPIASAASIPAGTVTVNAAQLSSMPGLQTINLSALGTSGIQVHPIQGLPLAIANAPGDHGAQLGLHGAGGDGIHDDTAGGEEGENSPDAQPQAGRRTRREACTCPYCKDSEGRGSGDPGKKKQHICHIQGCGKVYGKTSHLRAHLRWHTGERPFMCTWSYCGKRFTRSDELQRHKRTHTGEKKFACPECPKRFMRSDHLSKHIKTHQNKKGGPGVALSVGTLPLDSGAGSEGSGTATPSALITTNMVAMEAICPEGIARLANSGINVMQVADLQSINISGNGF

Endothelial PAS domain-containing protein 1 (Homo sapiens), Q99814 P329T, sequence (Q99814 whole entry P329T, the tested form may be a part): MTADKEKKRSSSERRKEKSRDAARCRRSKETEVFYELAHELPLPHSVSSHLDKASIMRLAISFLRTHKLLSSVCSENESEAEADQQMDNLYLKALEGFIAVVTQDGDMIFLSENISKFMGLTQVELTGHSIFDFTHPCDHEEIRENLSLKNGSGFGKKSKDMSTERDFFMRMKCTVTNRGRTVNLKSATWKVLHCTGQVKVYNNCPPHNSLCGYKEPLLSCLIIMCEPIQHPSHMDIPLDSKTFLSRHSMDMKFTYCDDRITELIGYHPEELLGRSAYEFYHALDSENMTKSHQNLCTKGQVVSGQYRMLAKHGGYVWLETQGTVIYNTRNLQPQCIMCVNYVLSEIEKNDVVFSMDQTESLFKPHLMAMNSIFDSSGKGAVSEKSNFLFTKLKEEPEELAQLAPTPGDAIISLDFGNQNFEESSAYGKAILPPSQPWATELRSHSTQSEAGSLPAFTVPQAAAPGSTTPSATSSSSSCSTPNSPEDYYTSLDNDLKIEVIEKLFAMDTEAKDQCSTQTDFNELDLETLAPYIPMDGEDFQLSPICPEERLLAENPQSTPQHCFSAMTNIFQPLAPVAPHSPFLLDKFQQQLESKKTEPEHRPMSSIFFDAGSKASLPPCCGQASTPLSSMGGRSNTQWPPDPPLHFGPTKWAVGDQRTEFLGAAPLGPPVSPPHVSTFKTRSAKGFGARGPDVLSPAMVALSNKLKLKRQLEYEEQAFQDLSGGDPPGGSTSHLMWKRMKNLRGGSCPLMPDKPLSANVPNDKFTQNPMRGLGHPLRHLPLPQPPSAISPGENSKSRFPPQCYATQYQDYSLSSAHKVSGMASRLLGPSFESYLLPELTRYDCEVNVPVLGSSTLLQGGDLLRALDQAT
Endothelial PAS domain-containing protein 1 (Homo sapiens), Q99814 T324V, sequence (Q99814 whole entry T324V, the tested form may be a part): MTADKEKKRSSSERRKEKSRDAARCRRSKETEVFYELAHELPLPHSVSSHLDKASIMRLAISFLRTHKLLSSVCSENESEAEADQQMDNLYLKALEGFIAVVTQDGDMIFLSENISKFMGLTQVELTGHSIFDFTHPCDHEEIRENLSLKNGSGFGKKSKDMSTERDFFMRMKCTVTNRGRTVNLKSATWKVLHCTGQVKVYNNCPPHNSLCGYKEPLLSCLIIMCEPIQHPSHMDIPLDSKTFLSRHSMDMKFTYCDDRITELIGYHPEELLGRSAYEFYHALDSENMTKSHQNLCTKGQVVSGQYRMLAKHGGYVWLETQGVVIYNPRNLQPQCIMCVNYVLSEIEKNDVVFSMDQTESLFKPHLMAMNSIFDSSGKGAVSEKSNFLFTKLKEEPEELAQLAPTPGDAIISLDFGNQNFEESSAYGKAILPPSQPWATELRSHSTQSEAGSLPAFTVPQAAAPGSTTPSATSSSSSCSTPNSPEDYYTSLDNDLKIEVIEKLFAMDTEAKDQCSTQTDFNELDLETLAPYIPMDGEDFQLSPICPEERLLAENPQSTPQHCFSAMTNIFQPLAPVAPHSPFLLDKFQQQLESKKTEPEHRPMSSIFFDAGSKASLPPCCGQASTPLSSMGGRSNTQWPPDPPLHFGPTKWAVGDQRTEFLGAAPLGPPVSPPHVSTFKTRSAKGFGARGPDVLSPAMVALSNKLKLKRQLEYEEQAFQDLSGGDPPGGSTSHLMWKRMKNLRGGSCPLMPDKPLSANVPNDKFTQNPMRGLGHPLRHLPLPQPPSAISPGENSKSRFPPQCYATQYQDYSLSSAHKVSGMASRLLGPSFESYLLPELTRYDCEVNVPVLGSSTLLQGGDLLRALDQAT
pdk1_human PDK1, sequence (Q15118 whole entry, looked up): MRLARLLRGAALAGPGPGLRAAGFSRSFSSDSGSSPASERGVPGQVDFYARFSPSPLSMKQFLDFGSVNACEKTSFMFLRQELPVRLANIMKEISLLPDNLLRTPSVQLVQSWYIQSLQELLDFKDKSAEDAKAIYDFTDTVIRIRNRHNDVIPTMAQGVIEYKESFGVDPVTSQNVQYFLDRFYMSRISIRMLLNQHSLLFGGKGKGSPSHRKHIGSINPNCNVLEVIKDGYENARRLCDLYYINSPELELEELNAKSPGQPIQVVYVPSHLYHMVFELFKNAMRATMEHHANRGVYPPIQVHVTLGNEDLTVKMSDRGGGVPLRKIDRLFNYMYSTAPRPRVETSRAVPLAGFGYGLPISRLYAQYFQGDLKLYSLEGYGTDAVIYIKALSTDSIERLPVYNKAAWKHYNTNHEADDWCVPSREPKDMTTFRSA

Substance | effect of a mutation on the interaction (pdk1_human PDK1) | effect of a mutation on the interaction (sp1_human SP1)
Endothelial PAS domain-containing protein 1 (Homo sapiens), Q99814 T324V | disrupting interaction | 
Endothelial PAS domain-containing protein 1 (Homo sapiens), Q99814 P329T |  | increasing interaction
